In experiment [1] the target is T1, VeA yeast two-hybrid fusion (veA ORF in pTLexA or pGAD424) (Aspergillus nidulans, UniProt C8VTV4 1-573).
T1 construct: also called pNJ04; pNJ05
T1 sequence: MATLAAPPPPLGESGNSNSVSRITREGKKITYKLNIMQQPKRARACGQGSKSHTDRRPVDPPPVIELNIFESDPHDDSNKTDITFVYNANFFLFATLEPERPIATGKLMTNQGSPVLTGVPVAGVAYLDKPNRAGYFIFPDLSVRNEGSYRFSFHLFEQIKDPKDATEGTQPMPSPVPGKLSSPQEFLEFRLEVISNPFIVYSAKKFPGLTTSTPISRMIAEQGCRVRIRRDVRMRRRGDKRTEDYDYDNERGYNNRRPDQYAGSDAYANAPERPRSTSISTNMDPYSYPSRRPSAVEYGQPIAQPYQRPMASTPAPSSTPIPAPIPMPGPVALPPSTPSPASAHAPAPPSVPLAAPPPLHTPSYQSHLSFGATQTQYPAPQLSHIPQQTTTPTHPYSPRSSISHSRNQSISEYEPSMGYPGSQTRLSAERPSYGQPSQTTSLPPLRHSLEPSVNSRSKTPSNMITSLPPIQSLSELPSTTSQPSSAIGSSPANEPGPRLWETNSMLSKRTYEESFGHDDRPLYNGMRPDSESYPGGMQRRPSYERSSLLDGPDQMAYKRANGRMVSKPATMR
Description: yeast two-hybrid.

For the next experiment, the target named is T2, N-EYFP::VeA (Aspergillus nidulans, UniProt C8VTV4 1-573).
T2 construct: BiFC construct expressed in A. nidulans (pME3188, pME3189); also called enhanced yellow fluorescent protein fused to the N terminus of veA; not shown: N-terminal part of EYFP (n-eyfp)
T2 sequence: T1 sequence
As to the kind of experiment: bimolecular fluorescence complementation in living A. nidulans cells.

The target of experiment [2] is T3, VeA::TAP* (VeA tagged at its C terminus by TAP tag, veA::ctap*) (Aspergillus nidulans, UniProt C8VTV4 1-573).
T3 construct: 85 kDa on the immunoblot; also called tagged VeA; VeA::TAP* tag
T3 sequence: T1 sequence
Description: tandem affinity purification of veA::ctap* and mass spectrometry, dark.

Experiment [3] deals with T3, VeA::TAP* (VeA tagged at its C terminus …). As to the kind of experiment: tandem affinity purification and mass spectrometry, dark.

The text below walks through data of US20110076682A1 (WISCONSIN ALUMNI RESEARCH FOUNDATION, published 2011).

B1: VelB yeast two-hybrid fusion (velB ORF in pTLexA or pGAD424) (other)
chain: MYAVEDRAHSGHHPPPLSMDRIPPPSTMYPSSAGPSAMVSPAGQPEPESLSTVHDGRIWSLQVVQQPIRARMCGFGDKDRRPITPPPCIRLIVKDAQTQKEVDINSLDSSFYVVMADLWNADGTHEVNLVKHSATSPSISTAMSSSYPPPPHPTSSDYPASYQTNPYGQPVGQPVGQPVGYAGVGNYYGGSTQLQYQNAYPNPQAQYYQPMYGGMAQPQMPAAQPVTPGPGGMFTRNLIGCLSASAYRLYDTEDKIGVWFVLQDLSVRTEGIFRLKFSFVNVGKSVSDLPQSDIAEVINKGTAPILASTFSEPFQVFSAKKFPGVIESTPLSKVFANQGIKIPIRKDGVKGQGSRGRHSDEDDGLDNEY
notes: also called pNJ20; pNJ23
As for B1, in experiment [1], the binding result was “binds”.

B2: C-EYFP::VelB (other)
chain: B1 chain
notes: BiFC construct expressed in A. nidulans (pME3189, strain AGB388); not shown: C-terminal part of EYFP (c-eyfp)
With B2, the binding result with N-EYFP::VeA was “binds”.

B3: C-EYFP::LaeA (other)
chain: MFEMGPVGTRLPAMTSPAHNHYSYHSPTSSDRGRSRQNSDAMDIQSITEREPATRYAVAGGPAPWNRNGSPSMSPMYSNNSERNQFHEENGRTYHGFRRGMYFLPCDEQEQDRLDIFHKLFTVARVSESLIYAPHPTNGRFLDLGCGTGIWAIEVANKYPDAFVAGVDLAPIQPPNHPKNCEFYAPFDFEAPWAMGEDSWDLIHLQMGCGSVMGWPNLYRRIFAHLRPGAWFEQVEIDFEPRCDDRSLDGTALRHWYDCLKQATAETMRPIAHSSRDTIKDLQDAGFTEIDHQIVGLPLNPWHQDEHERKVARWYNLAVSESIENLSLAPFSRVYRWPLERIQQLAADVKSEAFNKEIHAYNILHIYQARKPLR
notes: BiFC construct expressed in A. nidulans (pME3188, strain AGB307); not shown: C-terminal part of EYFP (c-eyfp)
B3: the binding result with N-EYFP::VeA is “binds”.

B4: LaeA (other)
chain: B3 chain
notes: Endogenous untagged protein co-purified from A. nidulans extracts; also called regulator LaeA
With B4, the binding result in experiment [2] was “binds”.

B5: regulator of sporogenesis VosA (other)
chain: MSAANYPDPSLPRPSTSDDFELIVRQNPNRARVAGGKEKERKPVDPPPIVQIRVREEGTYLAQHYLQSPYFFMSCSLYDAQEDAPASIPPSTALTGTLVSSLHRLKDVDNTDGGFFVWGDLSIKVEGDFRLKFSLFEMRKTDVVFLKSIVSERFTVSPPKSFPGMAESTFLSRSFADQGVKLRIRKEPRTLIKRTAPRPEEYPQAAIPRSPSDRTAMQIPGSSYPAPPYQPTSRDYSYYAPVKRQRTSVDYGARGMYDADGRMRQMETYPQTATLYGQPGGYPTPMMGYPSGHGGVPDYAMSYGLPPSAQVPQMQDPAAQSRSSQQATMQSLGMVNPPGTPTPDSARAMMQQAYPRPQYSASTAVLPPLQQSRNYPQGTNGATRGYYEQSPQATPILPSQPLGTSEAERYGVPPGHTGYDHTGSANGTPR
notes: Endogenous untagged protein co-purified from A. nidulans extracts
For the molecule B5, in experiment [3], the binding result is given as “no binding”.
